Experimental data from patent publication US20120329986A1 (UNIVERSITE DE MONTREAL, published 2012).
Square brackets hold non-standard residues; d marks the D form. Ends that are not written are not given here. dTrp(2-Me) = Cc1[nH]c2ccccc2c1C[C@@H](N)C(=O)O; HAIC = not defined here

Target: CD36 receptor (in the src-kinase cellular assay)
Assay: cell-based or functional assay

[HAIC][dTrp(2-Me)][dK]W[dF]K-NH2 (reading uncertain) [EP80317]
SRC-kinase cellular assay EC50: 26 nM
